Results on 1 substance are retold here after EP0866075B1, “Method to treat microbial infections by uncoupling of phosphotransferase system and appropriate agents therefor” (Arpida AG,, priority 1997, dated 1998).

The assay addresses enzyme I (phosphoenolpyruvate-protein phosphotransferase, EC 2.7.3.9) of the E. coli phosphotransferase system (E. coli) (UniProt P08839). Nature of the assay: cell-based or functional assay.

For the substance “HPr protein (phosphorylcarrier protein HPr) (from UniProt P0AA04 1-85)”, the uncoupling P;Ipeptide/h is 2.7 Pi/peptide/h.
